We go through seven molecules from patent US20150218534A1, “MODIFIED DNA POLYMERASE” (TOYOBO CO., LTD., priority 2012, published 2015).

B1: KOD Y7A: modified DNA polymerase derived from Thermococcus kodakaraensis KOD1 with Y7A (protein, listed as Thermococcus kodakaraensis)
chain: MILDTDAITEDGKPVIRIFKKENGEFKIEYDRTFEPYFYALLKDDSAIEEVKKITAERHGTVVTVKRVEKVQKKFLGRPVEVWKLYFTHPQDVPAIRDKIREHPAVIDIYEYDIPFAKRYLIDKGLVPMEGDEELKMLAFDIETLYHEGEEFAEGPILMISYADEEGARVITWKNVDLPYVDVVSTEREMIKRFLRVVKEKDPDVLITYNGDNFDFAYLKKRCEKLGINFALGRDGSEPKIQRMGDRFAVEVKGRIHFDLYPVIRRTINLPTYTLEAVYEAVFGQPKEKVYAEEITTAWETGENLERVARYSMEDAKVTYELGKEFLPMEAQLSRLIGQSLWDVSRSSTGNLVEWFLLRKAYERNELAPNKPDEKELARRRQSYEGGYVKEPERGLWENIVYLDFRSLYPSIIITHNVSPDTLNREGCKEYDVAPQVGHRFCKDFPGFIPSLLGDLLEERQKIKKKMKATIDPIERKLLDYRQRAIKILANSYYGYYGYARARWYCKECAESVTAWGREYITMTIKEIEEKYGFKVIYSDTDGFFATIPGADAETVKKKAMEFLKYINAKLPGALELEYEGFYKRGFFVTKKKYAVIDEEGKITTRGLEIVRRDWSEIAKETQARVLEALLKDGDVEKAVRIVKEVTEKLSKYEVPPEKLVIHEQITRDLKDYKATGPHVAVAKRLAARGVKIRPGTVISYIVLKGSGRIGDRAIPFDEFDPTKHKYDAEYYIENQVLPAVERILRAFGYRKEDLRYQKTRQVGLSAWLKPKGT
B2: KOD P36H: modified KOD DNA polymerase with P36H (protein, listed as Thermococcus kodakaraensis)
chain: MILDTDYITEDGKPVIRIFKKENGEFKIEYDRTFEHYFYALLKDDSAIEEVKKITAERHGTVVTVKRVEKVQKKFLGRPVEVWKLYFTHPQDVPAIRDKIREHPAVIDIYEYDIPFAKRYLIDKGLVPMEGDEELKMLAFDIETLYHEGEEFAEGPILMISYADEEGARVITWKNVDLPYVDVVSTEREMIKRFLRVVKEKDPDVLITYNGDNFDFAYLKKRCEKLGINFALGRDGSEPKIQRMGDRFAVEVKGRIHFDLYPVIRRTINLPTYTLEAVYEAVFGQPKEKVYAEEITTAWETGENLERVARYSMEDAKVTYELGKEFLPMEAQLSRLIGQSLWDVSRSSTGNLVEWFLLRKAYERNELAPNKPDEKELARRRQSYEGGYVKEPERGLWENIVYLDFRSLYPSIIITHNVSPDTLNREGCKEYDVAPQVGHRFCKDFPGFIPSLLGDLLEERQKIKKKMKATIDPIERKLLDYRQRAIKILANSYYGYYGYARARWYCKECAESVTAWGREYITMTIKEIEEKYGFKVIYSDTDGFFATIPGADAETVKKKAMEFLKYINAKLPGALELEYEGFYKRGFFVTKKKYAVIDEEGKITTRGLEIVRRDWSEIAKETQARVLEALLKDGDVEKAVRIVKEVTEKLSKYEVPPEKLVIHEQITRDLKDYKATGPHVAVAKRLAARGVKIRPGTVISYIVLKGSGRIGDRAIPFDEFDPTKHKYDAEYYIENQVLPAVERILRAFGYRKEDLRYQKTRQVGLSAWLKPKGT
B3: KOD V93K: modified KOD DNA polymerase with V93K (protein, listed as Thermococcus kodakaraensis)
chain: MILDTDYITEDGKPVIRIFKKENGEFKIEYDRTFEPYFYALLKDDSAIEEVKKITAERHGTVVTVKRVEKVQKKFLGRPVEVWKLYFTHPQDKPAIRDKIREHPAVIDIYEYDIPFAKRYLIDKGLVPMEGDEELKMLAFDIETLYHEGEEFAEGPILMISYADEEGARVITWKNVDLPYVDVVSTEREMIKRFLRVVKEKDPDVLITYNGDNFDFAYLKKRCEKLGINFALGRDGSEPKIQRMGDRFAVEVKGRIHFDLYPVIRRTINLPTYTLEAVYEAVFGQPKEKVYAEEITTAWETGENLERVARYSMEDAKVTYELGKEFLPMEAQLSRLIGQSLWDVSRSSTGNLVEWFLLRKAYERNELAPNKPDEKELARRRQSYEGGYVKEPERGLWENIVYLDFRSLYPSIIITHNVSPDTLNREGCKEYDVAPQVGHRFCKDFPGFIPSLLGDLLEERQKIKKKMKATIDPIERKLLDYRQRAIKILANSYYGYYGYARARWYCKECAESVTAWGREYITMTIKEIEEKYGFKVIYSDTDGFFATIPGADAETVKKKAMEFLKYINAKLPGALELEYEGFYKRGFFVTKKKYAVIDEEGKITTRGLEIVRRDWSEIAKETQARVLEALLKDGDVEKAVRIVKEVTEKLSKYEVPPEKLVIHEQITRDLKDYKATGPHVAVAKRLAARGVKIRPGTVISYIVLKGSGRIGDRAIPFDEFDPTKHKYDAEYYIENQVLPAVERILRAFGYRKEDLRYQKTRQVGLSAWLKPKGT
B4: KOD P36R: modified KOD DNA polymerase with P36R (protein, listed as Thermococcus kodakaraensis)
chain: MILDTDYITEDGKPVIRIFKKENGEFKIEYDRTFERYFYALLKDDSAIEEVKKITAERHGTVVTVKRVEKVQKKFLGRPVEVWKLYFTHPQDVPAIRDKIREHPAVIDIYEYDIPFAKRYLIDKGLVPMEGDEELKMLAFDIETLYHEGEEFAEGPILMISYADEEGARVITWKNVDLPYVDVVSTEREMIKRFLRVVKEKDPDVLITYNGDNFDFAYLKKRCEKLGINFALGRDGSEPKIQRMGDRFAVEVKGRIHFDLYPVIRRTINLPTYTLEAVYEAVFGQPKEKVYAEEITTAWETGENLERVARYSMEDAKVTYELGKEFLPMEAQLSRLIGQSLWDVSRSSTGNLVEWFLLRKAYERNELAPNKPDEKELARRRQSYEGGYVKEPERGLWENIVYLDFRSLYPSIIITHNVSPDTLNREGCKEYDVAPQVGHRFCKDFPGFIPSLLGDLLEERQKIKKKMKATIDPIERKLLDYRQRAIKILANSYYGYYGYARARWYCKECAESVTAWGREYITMTIKEIEEKYGFKVIYSDTDGFFATIPGADAETVKKKAMEFLKYINAKLPGALELEYEGFYKRGFFVTKKKYAVIDEEGKITTRGLEIVRRDWSEIAKETQARVLEALLKDGDVEKAVRIVKEVTEKLSKYEVPPEKLVIHEQITRDLKDYKATGPHVAVAKRLAARGVKIRPGTVISYIVLKGSGRIGDRAIPFDEFDPTKHKYDAEYYIENQVLPAVERILRAFGYRKEDLRYQKTRQVGLSAWLKPKGT
B5: KOD V93R: modified KOD DNA polymerase with V93R (protein, listed as Thermococcus kodakaraensis)
chain: MILDTDYITEDGKPVIRIFKKENGEFKIEYDRTFEPYFYALLKDDSAIEEVKKITAERHGTVVTVKRVEKVQKKFLGRPVEVWKLYFTHPQDRPAIRDKIREHPAVIDIYEYDIPFAKRYLIDKGLVPMEGDEELKMLAFDIETLYHEGEEFAEGPILMISYADEEGARVITWKNVDLPYVDVVSTEREMIKRFLRVVKEKDPDVLITYNGDNFDFAYLKKRCEKLGINFALGRDGSEPKIQRMGDRFAVEVKGRIHFDLYPVIRRTINLPTYTLEAVYEAVFGQPKEKVYAEEITTAWETGENLERVARYSMEDAKVTYELGKEFLPMEAQLSRLIGQSLWDVSRSSTGNLVEWFLLRKAYERNELAPNKPDEKELARRRQSYEGGYVKEPERGLWENIVYLDFRSLYPSIIITHNVSPDTLNREGCKEYDVAPQVGHRFCKDFPGFIPSLLGDLLEERQKIKKKMKATIDPIERKLLDYRQRAIKILANSYYGYYGYARARWYCKECAESVTAWGREYITMTIKEIEEKYGFKVIYSDTDGFFATIPGADAETVKKKAMEFLKYINAKLPGALELEYEGFYKRGFFVTKKKYAVIDEEGKITTRGLEIVRRDWSEIAKETQARVLEALLKDGDVEKAVRIVKEVTEKLSKYEVPPEKLVIHEQITRDLKDYKATGPHVAVAKRLAARGVKIRPGTVISYIVLKGSGRIGDRAIPFDEFDPTKHKYDAEYYIENQVLPAVERILRAFGYRKEDLRYQKTRQVGLSAWLKPKGT
B6: KOD P36H/V93K: modified KOD DNA polymerase with P36H and V93K (protein, listed as Thermococcus kodakaraensis)
chain: MILDTDYITEDGKPVIRIFKKENGEFKIEYDRTFEHYFYALLKDDSAIEEVKKITAERHGTVVTVKRVEKVQKKFLGRPVEVWKLYFTHPQDKPAIRDKIREHPAVIDIYEYDIPFAKRYLIDKGLVPMEGDEELKMLAFDIETLYHEGEEFAEGPILMISYADEEGARVITWKNVDLPYVDVVSTEREMIKRFLRVVKEKDPDVLITYNGDNFDFAYLKKRCEKLGINFALGRDGSEPKIQRMGDRFAVEVKGRIHFDLYPVIRRTINLPTYTLEAVYEAVFGQPKEKVYAEEITTAWETGENLERVARYSMEDAKVTYELGKEFLPMEAQLSRLIGQSLWDVSRSSTGNLVEWFLLRKAYERNELAPNKPDEKELARRRQSYEGGYVKEPERGLWENIVYLDFRSLYPSIIITHNVSPDTLNREGCKEYDVAPQVGHRFCKDFPGFIPSLLGDLLEERQKIKKKMKATIDPIERKLLDYRQRAIKILANSYYGYYGYARARWYCKECAESVTAWGREYITMTIKEIEEKYGFKVIYSDTDGFFATIPGADAETVKKKAMEFLKYINAKLPGALELEYEGFYKRGFFVTKKKYAVIDEEGKITTRGLEIVRRDWSEIAKETQARVLEALLKDGDVEKAVRIVKEVTEKLSKYEVPPEKLVIHEQITRDLKDYKATGPHVAVAKRLAARGVKIRPGTVISYIVLKGSGRIGDRAIPFDEFDPTKHKYDAEYYIENQVLPAVERILRAFGYRKEDLRYQKTRQVGLSAWLKPKGT
B7: KOD V93Q: modified KOD DNA polymerase with V93Q (protein, listed as Thermococcus kodakaraensis)
chain: MILDTDYITEDGKPVIRIFKKENGEFKIEYDRTFEPYFYALLKDDSAIEEVKKITAERHGTVVTVKRVEKVQKKFLGRPVEVWKLYFTHPQDQPAIRDKIREHPAVIDIYEYDIPFAKRYLIDKGLVPMEGDEELKMLAFDIETLYHEGEEFAEGPILMISYADEEGARVITWKNVDLPYVDVVSTEREMIKRFLRVVKEKDPDVLITYNGDNFDFAYLKKRCEKLGINFALGRDGSEPKIQRMGDRFAVEVKGRIHFDLYPVIRRTINLPTYTLEAVYEAVFGQPKEKVYAEEITTAWETGENLERVARYSMEDAKVTYELGKEFLPMEAQLSRLIGQSLWDVSRSSTGNLVEWFLLRKAYERNELAPNKPDEKELARRRQSYEGGYVKEPERGLWENIVYLDFRSLYPSIIITHNVSPDTLNREGCKEYDVAPQVGHRFCKDFPGFIPSLLGDLLEERQKIKKKMKATIDPIERKLLDYRQRAIKILANSYYGYYGYARARWYCKECAESVTAWGREYITMTIKEIEEKYGFKVIYSDTDGFFATIPGADAETVKKKAMEFLKYINAKLPGALELEYEGFYKRGFFVTKKKYAVIDEEGKITTRGLEIVRRDWSEIAKETQARVLEALLKDGDVEKAVRIVKEVTEKLSKYEVPPEKLVIHEQITRDLKDYKATGPHVAVAKRLAARGVKIRPGTVISYIVLKGSGRIGDRAIPFDEFDPTKHKYDAEYYIENQVLPAVERILRAFGYRKEDLRYQKTRQVGLSAWLKPKGT

In one experiment the test system is 482 bp of human β-globin. In words: PCR amplification of 482 bp of human β-globin with dUTP in place of dTTP. It is filed as biochemical. The following applies: 100% dUTP instead of dTTP (FIGS. 5 to 8). The arrangement: key to Results of PCR in the presence of dUTP 481 bp: A: Amplified; B: Amplified (faint band); C: Not amplified. In outline: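 482 bp human β-globin amplified from 10 ng human genomic DNA with 1 U enzyme premixed with KOD antibody, using 0.2 mM dNTPs with either dTTP or dUTP, 1.5 mM MgSO4, 15 pmol primers. Cycling: 94 °C 2 min, then 35 cycles of 98 °C 10 s, 68 °C 1 min; products analysed by MultiNA DNA-1000 microchip electrophoresis.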
In the case of B1, the “PCR amplification of 482 bp with dUTP” value is “not PCR-amplified”.

The same experiment, now with this note: dTTP replaced by dUTP, 35 cycles.
B1: the “Results of PCR in the presence of dUTP 481 bp” value (from here on “Results of PCR”) is “C”. The same measure, in the same setting: with B2 the entry was “A”; with B3, “A”; with B4, “A”. On to B5, for which the “Results of PCR” value is given as “A”. Take B6: the “Results of PCR” value is on record as “A”. The same measure, in the same setting: with B7 the entry was “A”.
